Assay [1] concerns the target T1, GARP Y137H / TGF-β1 complex (human, UniProt Q14392 20-662; P01137 30-390). The assay is described as follows: flow cytometry on transfected 293T cells, 5 ug/ml; grade of Loss of binding read by footnote 2 (error bar crosses the 50% threshold). The source says: (§1) Resolution of the crystal structure of MHG-8 Fab/GARP/TGF-β1 complexes and analysis with the CONTACT software allowed the identification of 22 amino-acids in GARP, 8 amino-acids in LAP and 6 amino-acids in mature TGF-β1 that are located less than 5 Å away from an amino-acid of the light or heavy chain of the MHG-8 Fab (Tables 7a, b and c, and Table 8). Directed mutagenesis was used to construct plasmids encoding HA-tagged forms of GARP or TGF-β1 that are mutated at one, two, or three of these 36 positions (all mutations constructed are indicated in Table 8). […] Antibodies were used at a saturating concentration of 5 μg/ml for labeling. Binding of each antibody to a given mutant GARP/TGF-β1 complex was compared to their binding to wild type (WT) complexes, by determining an I_{m/wt} value (i.e. intensity of binding to mutant by comparison to WT). This value was calculated as follows: I_{m/wt} of antibody X=[Geom on mutant−Geom on control]/[Geom on WT−Geom on control]
(§2) The level of residual binding of anti-GARP or anti-LAP antibodies to each mutant was then calculated by comparison to WT, taking into account the expression levels of mutant and WT forms as measured with anti-HA antibodies. Residual binding was calculated as follows: Residual binding by an anti-GARP or anti-LAP antibody=[I_{m/wt} with anti-GARP or anti-LAP antibody]/[I_{m/wt} with anti-HA antibody]
On the technique in general: A flow cytometer gives signals particle by particle.

The target of assay [2] is T2, GARP R143Y / TGF-β1 complex (human, UniProt Q14392 20-662; P01137 30-390). Described as above.
T2 sequence (Q14392 20-662 R143Y limits assumed, chain 1 of 2): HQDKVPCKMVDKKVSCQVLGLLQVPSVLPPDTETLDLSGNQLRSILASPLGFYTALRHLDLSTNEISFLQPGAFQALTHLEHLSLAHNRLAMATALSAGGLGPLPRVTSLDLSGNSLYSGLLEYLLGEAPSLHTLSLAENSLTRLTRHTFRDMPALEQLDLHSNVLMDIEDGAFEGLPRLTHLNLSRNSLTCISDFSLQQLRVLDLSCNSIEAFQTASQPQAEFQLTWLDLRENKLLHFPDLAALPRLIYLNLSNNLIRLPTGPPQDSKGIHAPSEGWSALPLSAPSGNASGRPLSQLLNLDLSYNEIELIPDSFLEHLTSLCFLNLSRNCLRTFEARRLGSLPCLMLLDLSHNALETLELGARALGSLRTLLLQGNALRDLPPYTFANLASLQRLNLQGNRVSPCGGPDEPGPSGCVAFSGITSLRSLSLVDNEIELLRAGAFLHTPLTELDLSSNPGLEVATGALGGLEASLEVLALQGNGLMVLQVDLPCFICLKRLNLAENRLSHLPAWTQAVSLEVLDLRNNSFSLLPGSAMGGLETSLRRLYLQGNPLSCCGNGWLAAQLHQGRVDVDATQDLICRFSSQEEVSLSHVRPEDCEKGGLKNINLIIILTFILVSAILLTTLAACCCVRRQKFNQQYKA
T2 sequence (P01137 30-390 limits assumed, chain 2 of 2): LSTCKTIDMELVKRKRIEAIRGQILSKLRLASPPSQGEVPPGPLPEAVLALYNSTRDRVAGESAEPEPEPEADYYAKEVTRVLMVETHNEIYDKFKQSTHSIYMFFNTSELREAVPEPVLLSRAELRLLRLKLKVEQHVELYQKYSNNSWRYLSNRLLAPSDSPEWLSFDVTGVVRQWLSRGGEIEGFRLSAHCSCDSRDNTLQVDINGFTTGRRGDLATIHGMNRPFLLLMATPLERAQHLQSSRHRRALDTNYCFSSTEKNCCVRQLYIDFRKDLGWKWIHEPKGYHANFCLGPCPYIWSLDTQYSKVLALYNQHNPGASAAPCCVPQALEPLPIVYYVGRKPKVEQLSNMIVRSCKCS
Description: as §1, §2

The target of assay [3] is T1, GARP Y137H / TGF-β1 complex. The assay is described as follows: flow cytometry titration on transfected 293T cells; grade of Reduced avidity read by footnote 3. The method, then:
(§3) Intensities of staining at each concentration of antibody relative to the maximal intensity measured at 5 μg/ml were determined as follows:
(§4) The relative staining intensities were plotted according to the concentration of antibody used for staining, and a non-linear regression analysis was used with the Prism software to determine an EC₅₀ value for binding of the antibody to the WT and to each of the various mutant GARP/TGF-β1 complexes. If the ratio between the EC₅₀ measured on the mutant and the EC₅₀ measured on the WT was >2, the mutation was considered to induce a reduced avidity for binding by the antibody. The ratio of EC₅₀ (mutant vs WT) for MHG-8 and LHG-10 are indicated below each mutation on FIG. 19, parts A and B, respectively.

For assay [4], the target named is GARP / TGF-β1 Y284A complex (human, UniProt Q14392 20-662; P01137 30-390). The description is as above. The method, then:
as §3, §4

Assay [5] concerns the target GARP S138G / TGF-β1 complex (human, UniProt Q14392 20-662; P01137 30-390). The description is as above. The method, then:
as §3, §4

Assay [6] addresses GARP E189A / TGF-β1 complex (human, UniProt Q14392 20-662; P01137 30-390). The assay is described as above. The method, then:
as §3, §4

The target of assay [7] is GARP / TGF-β1 E146R complex (human, UniProt Q14392 20-662; P01137 30-390). The description is as above. The method, then:
as §3, §4

Assay [8] deals with T2, GARP R143Y / TGF-β1 complex. Described as above. The method, then: as §3, §4
Assay [9] concerns the target GARP Y137H/S138G/G139N / TGF-β1 complex (human, UniProt Q14392 20-662; P01137 30-390). Described as above. The method, then:
as §3, §4

In assay [10] the target is GARP R170A / TGF-β1 complex (human, UniProt Q14392 20-662; P01137 30-390). The description is as above. The method, then:
as §3, §4

Assay [11] concerns the target GARP / TGF-β1 K338E complex (human, UniProt Q14392 20-662; P01137 30-390). The assay is described as above. The protocol: as §3, §4
The target in assay [12] is GARP / TGF-β1 H270Y complex (human, UniProt Q14392 20-662; P01137 30-390). The assay is described as above. The method, then:
as §3, §4

Assay [13] addresses GARP T162D / TGF-β1 complex (human, UniProt Q14392 20-662; P01137 30-390). The description is as above. The protocol:
as §3, §4

Assay [14] has as its target GARP / TGF-β1 Y336A complex (human, UniProt Q14392 20-662; P01137 30-390). Described as above. The method, then:
as §3, §4

The target of assay [15] is GARP / TGF-β1 Q272Y complex (human, UniProt Q14392 20-662; P01137 30-390). The description is as above. The method, then:
as §3, §4

For assay [16], the target named is GARP / TGF-β1 Q269Y complex (human, UniProt Q14392 20-662; P01137 30-390). Described as above. The protocol:
as §3, §4

Assay [17] has as its target GARP M111T/A112G/T113M / TGF-β1 complex (human, UniProt Q14392 20-662; P01137 30-390). Described as above. The protocol: as §3, §4

The record followed here is patent US20160251438A1 (LUDWIG INSTITUTE FOR CANCER RESEARCH, published 2016).

T1 sequence (Q14392 20-662 Y137H limits assumed, chain 1 of 2): as the sequence (Q14392 20-662 R143Y limits assumed, chain 1 of 2) above, with Y118H, Y124R counted along it
T1 sequence (P01137 30-390 limits assumed, chain 2 of 2): as the sequence (P01137 30-390 limits assumed, chain 2 of 2) above
GARP S138G / TGF-β1 complex, sequence (Q14392 20-662 S138G limits assumed, chain 1 of 2): as the sequence (Q14392 20-662 R143Y limits assumed, chain 1 of 2) above, with S119G, Y124R counted along it
GARP S138G / TGF-β1 complex, sequence (P01137 30-390 limits assumed, stated change not applied, chain 2 of 2): as the sequence (P01137 30-390 limits assumed, chain 2 of 2) above
GARP R170A / TGF-β1 complex, sequence (Q14392 20-662 R170A limits assumed, chain 1 of 2): as the sequence (Q14392 20-662 R143Y limits assumed, chain 1 of 2) above, with Y124R, R151A counted along it
GARP R170A / TGF-β1 complex, sequence (P01137 30-390 limits assumed, chain 2 of 2): as the sequence (P01137 30-390 limits assumed, chain 2 of 2) above

B1: LHG-10 (antibody, human IgG1, V domains shown)
VH: EVQLVQPGAELRNSGASVKVSCKASGYRFTSYYIDWVRQAPGQGLEWMGRIDPEDGGTKYAQKFQGRVTFTADTSTSTAYVELSSLRSEDTAVYYCARNEWETVVVGDLMYEYEYWGQGTQVTVSS
VL: DIQMTQSPTSLSASLGDRVTITCQASQSISSYLAWYQQKPGQAPKLLIYGASRLQTGVPSRFSGSGSGTSFTLTISGLEAEDAGTYYCQQYDSLPVTFGQGTKVELK
notes: llama-derived V regions in a full human IgG1
For the molecule B1, the “residual binding on mutant by comparison to WT” value in [1] and in assay [2] was no less than 50% in each case. The “ratio of EC50 (mutant vs WT)” value in [3], in [4], in assay [5], in assay [6], in assay [7] and in assay [8] was no more than 2 ratio each time. For the same molecule, the “ratio of EC50 (mutant vs WT)” value in assay [9] is greater than 2 ratio; in [10] it was no more than 2 ratio; in [11], no more than 2 ratio; in [12], no more than 2 ratio; in [13], greater than 2 ratio; in assay [14], no more than 2 ratio. Besides, the “ratio of EC50 (mutant vs WT)” value in assay [15], in assay [16] and in [17] was no more than 2 ratio throughout.
